# Measurements: publication PMC6768852
# What was measured:
# Test in all cases: EMSA
# Settings in all cases: EMSA: 100 pM RNA, 10 mM Tris, 100 mM NaCl, 0.1 mM EDTA, 0.01 mg/mL tRNA, 50 ug/mL heparin, 0.01% IGEPAL CA630, room temperature, 3 h; pH not stated
# IMP2 KH3 VL MUT (KH34) = IMP2 KH3 VL MUT (KH34) (UniProt Q9Y6M1)
# IMP2 KH34 double VL MUT = IMP2 KH34 double VL MUT (UniProt Q9Y6M1)
# IMP2 KH4 VL MUT (KH34) = IMP2 KH4 VL MUT (KH34) (UniProt Q9Y6M1)
# IMP2 KH4 VL MUT (KH34), sequence (Q9Y6M1 whole entry): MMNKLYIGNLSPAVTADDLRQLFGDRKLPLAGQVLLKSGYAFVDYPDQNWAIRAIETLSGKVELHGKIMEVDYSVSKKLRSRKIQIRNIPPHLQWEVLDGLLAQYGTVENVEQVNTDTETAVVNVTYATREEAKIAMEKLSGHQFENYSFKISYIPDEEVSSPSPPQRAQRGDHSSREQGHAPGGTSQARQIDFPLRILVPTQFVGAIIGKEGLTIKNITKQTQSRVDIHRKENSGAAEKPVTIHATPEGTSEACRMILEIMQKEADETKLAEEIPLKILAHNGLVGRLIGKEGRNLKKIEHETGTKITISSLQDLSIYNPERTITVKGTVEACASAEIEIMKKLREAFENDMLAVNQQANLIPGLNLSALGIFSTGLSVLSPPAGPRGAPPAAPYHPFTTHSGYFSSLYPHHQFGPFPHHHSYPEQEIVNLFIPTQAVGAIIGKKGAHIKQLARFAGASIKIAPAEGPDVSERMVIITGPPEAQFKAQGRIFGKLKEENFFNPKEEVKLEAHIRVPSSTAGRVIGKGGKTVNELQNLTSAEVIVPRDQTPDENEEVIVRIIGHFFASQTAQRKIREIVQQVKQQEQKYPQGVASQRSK
# IMP2 KH34 double VL MUT, sequence (Q9Y6M1 whole entry): as above
# IMP2 KH3 VL MUT (KH34), sequence (Q9Y6M1 425-581): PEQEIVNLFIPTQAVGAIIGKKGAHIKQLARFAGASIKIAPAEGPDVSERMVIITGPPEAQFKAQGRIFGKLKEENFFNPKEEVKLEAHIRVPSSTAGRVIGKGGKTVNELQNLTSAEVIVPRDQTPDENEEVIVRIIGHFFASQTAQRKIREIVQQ
sequence,measurement,setting,value
ACCGGACUGUUACCAACACCCACACCCC [C28 beta-actin zipcode WT],Kd,IMP2 KH3 VL MUT (KH34),7.3 nM
same,Kd,IMP2 KH34 double VL MUT,26.5 nM
same,Kd,IMP2 KH4 VL MUT (KH34),346 nM
